This is an account of results in PMC4248446.

This assay concerns the target receptor for advanced glycation end products (RAGE) (human (endogenous in HPAEC)) (UniProt Q15109).
Sequence of UniProt Q15109 (Q15109 23-404): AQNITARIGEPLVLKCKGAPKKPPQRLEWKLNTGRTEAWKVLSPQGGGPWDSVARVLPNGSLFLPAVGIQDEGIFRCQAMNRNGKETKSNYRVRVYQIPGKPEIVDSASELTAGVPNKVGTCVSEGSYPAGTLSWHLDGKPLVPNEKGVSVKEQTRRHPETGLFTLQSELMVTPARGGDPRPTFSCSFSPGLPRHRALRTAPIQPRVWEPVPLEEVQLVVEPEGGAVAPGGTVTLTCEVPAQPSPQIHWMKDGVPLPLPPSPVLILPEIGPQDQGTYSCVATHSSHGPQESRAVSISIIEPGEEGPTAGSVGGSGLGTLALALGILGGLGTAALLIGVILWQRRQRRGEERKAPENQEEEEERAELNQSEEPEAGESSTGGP

On to “recombinant high mobility group box-1 (HMGB1) (from UniProt P09429 1-215) (ligand)”, for which the ET-1 release from HPAECs induced by HMGB1 (40 ng/ml), ELISA of the culture supernatant, with anti-RAGE antibody (ab3611; Abcam; 1 μg/ml) co-treated was 349 pg/mL.
